Source: patent publication US20260258115A1 (MAPP BIOPHARMACEUTICAL, published 2026)
Where a chain is given by its changes, count along the chain named.

B1: ADI-41305 (antibody, V domains shown)
VH: QVTLKESGPGLVKPSQTLSLTCTVSGGSISGGGYYWSWIRQLPGKGLQWIGCIYDSGTTYYNPSLKSLVTISIDTSKNQFSLKLSSVTAADTAVYYCARGGSLDDFWSATWYFALWGRGTLVTVSS
VL: EIVLTQSPGTLSLSPGERATLSCRASQSVSSNYLAWYQQKPGQAPRLLIYGASSRATGIPDRFSGSGSGTDFTLTISRLEPEDFAFYYCQQYGRSPYTFGPGTKLEIK
B2: ADI-41319 (antibody, V domains shown)
VH: QVQLQESGPGLVKPSQTLSLTCTVSGGSISSGDYYWSWIRQPPGKGLEWIGYIFYSGTTYYNPSLKSRVTISLDTSQNQFSLKLSSVTAADTAVYYCARDGDEVDYVWGTRRYLDSWGRGTLVTVSS
VL: B1 VL with N32R, Y50H, F86V, Q90L, R94S, S95L, Y97K, P101Q, L105V
B3: ADI-41311 (antibody, V domains shown)
VH: QVTLKQSGPALVKPTQTLTLTCTFSGFSLSTKRMGVSWIRQPPGKALEWLARIDWDDDKYYSTSLRTRLTISKDTSKNQVVLTMTDMDPVDTATYYCARIQPYTSGGYYSYYFDYWGQGTLVTVSS
VL: DIQVTQSPSSLSASIGDRVTITCRASQTIASYLNWYQQKPGKAPKLLIYIASSLQSGVPSRFSGSGSGTDFTLTISTLQPEDFATYYCQQSYGTPWTFGQGTKVEIK
B4: ADI-41324 (antibody, V domains shown)
VH: EVQLVESGGGLVQPGGSLRLSCAASGFTVSNNYMRWVRQAPGKGLEWVSVIYSSGSTDYADSVKGRFTISRDNSKNTLYLQMNSLRAEDTAVYYCARERTLFYYDSSGFFDYWGQGTLVTVSS
VL: ETTLTQSPGTLSLSPGERATLSCRASQSVDSSYLAWYQQKPGQAPRLLIYGASNRATGIPDRFSGSGSGTDFTLTISRLEPEDFAVYYCQQYGRSLTFGGGTKLEIK
B5: ADI-41322 (antibody, V domains shown)
VH: QVQLVQSGAEVKKPGSSVRVSCKASGGSFSSYATSWVRQAPGQGLEWMGGIIPMYDAVNYAQKFQGRVTITADESTTTAYMELSSLRSEDTAVYYCARSSGYTGTNFFDYWGQGTLVTVSS
VL: DIQMTQSPSSVSASVGDRVTITCRASQDISSWLAWYQQKPGKAPKLLIYTASSLQSGVPSRFSGSGSGTDFTLTISRLQPEDFATYYCQQANSFPRVTFGGGTKVEIK
B6: ADI-41318 (antibody, V domains shown)
VH: EVQLLESGAEVKKPGSSVRVSCKAFGGTFSSYAFSWVRQAPGQGLEWMGGITPMFGTENYAPNFQGRVTITADKLTTTVYMELSRLRSEDSAVYYCAREGGRLGTTMGAFDMWGQGTMVTVSS
VL: DIRLTQSPSSLSASVGDRVTITCRASHGISSALAWYQQRPGRVPQVLIFHASTLESGVPSRFSGSGSGTDFTLTISSLQPEDFATYYCQQFNSYPYTFGQGTKVEIK
B7: ADI-41310 (antibody, V domains shown)
VH: QVQLVQSGVEVKKPGESLKISCRGSGYSFYNYWIAWVRQKPGKGLEYMGTIYLDDSDTIYSPSFQGEVTISADKSINTAYLQWNSLKASDTANYYCARQMDFYFDVWGRGTLVTVSS
VL: SYELTQPPSVSVSPGQTARITCSGDPLPRESAYWYQQKPGQAPVVVIFNDIERPLGIPGRFSGSRSGATATLTINGAQAEDEADYYCQSADSRKTFVFGAGTKLTVL
B8: ADI-41320 (antibody, V domains shown)
VH: B7 VH with S25F, F29A, K74R
VL: B7 VL with S1Q, Y2S, E3V, G59A, A68T, A70V, N75S, A100P
B9: ADI-41315 (antibody, V domains shown)
VH: EVQLLESGPGLVKPSETLSLTCAVSGGSISNYYWSWIRQPPGKGLEWIAYISYSGTTNYNPSLESRVTISVDTSKNQFSLKLNSVTAADTAVYYCARHEFLVLPDVWGQGTLVTVSS
VL: ETTLTQSPGTLSLSPGERATLSCRASQSVSSTFLAWYQQKPGQAPRLLIYAASSRATGIPDRFSGSGSGTDFTLIISRLEPEDFAVYYCQQYRSSPFSFGPGTKVEIK
B10: ADI-41303 (antibody, V domains shown)
VH: QVQLVQSGGGLVRPGGSLRVSCAASGFIFNNYALTWVRQAPGKGLEWVSAISGSGSSTYYADSVKGRFTISRENSNNRLYLQLSGLRAEDTAVYFCARVRGLVWFEGRIDPYPNVFDYWGQGTLVTVSS
VL: DIVLTQSPGTLSLSPGERATLSCRASQSVSNDYLAWYQQKPGQAPRLLIYDASSRAIGIPDRFSGSGSGTDFTLIISRLEPEDFAVYYCHHPGKFGQGTKVEIK
B11: ADI-41317 (antibody, V domains shown)
VH: EVQLVESGGGLVQPGGSLRLSCEASRFKFSTFWMAWVRQAPGKGLEWVANIKQDGSETYYLDSVKGRFTISRDNAKNSLFLQMKSLRAEDTAVYYCAGLWWGDLENWFDPWGQGTLVTVSS
VL: QSVLTQPPSVSGAPGQRVTISCTGSSSNLGTGFDVHWYRQLPGTAPQLLIYGSTNRPSGVPDRFSGSKYGTSASLAITGLQAEDEADYYCQSYDSNLRAYVFGTVTKVTVL
B12: ADI-41307 (antibody, V domains shown)
VH: QVQLVESGGGLVKPGGSLRLSCAASGFPLSPYALNWVRQAPGKGLEWVSSITSSSAYIYYADSVKGRFTVSRDNPTNSLYLQMNSLRAEDTAVYYCARTIPQHYYDNNGDYYNYGMDVWGQGTTVTVSS
VL: DIVLTQSPATLSVSPGQRITLSCRASQTVRSNLAWYQQKPGQPPRLLIYGASTRATGVPARFTGSGSGTEFTLTITSLQSDDFAVYYCHQYNDRPLTFGPGTKVEIK
B13: ADI-41314 (antibody, V domains shown)
VH: QVQLVQSGAEVKKPGSSVKVSCKAFGGIFSSYAISWVRQAPGQGLEWMGGIIPIFGTTKYAQKFQGRVTITADKSTSTVYMEVSSLRFEESAVYFCARAYCSGGTWYGGADYWGQGTLVTVSS
VL: QSVLTQPPSVSVSPGQTARITCSGDVLPKQYAYWYQQKPGQAPLLVMYKDTERPSGIPERFSGSSSVTAVTLTISGVQAEDEADYYCQSADSTQELFGGGTKLTVL
B14: ADI-41316 (antibody, V domains shown)
VH: QVQLVQSGGGVVQPGRSLRLSCAASGFTFNNYGMHWVRQAPGKGLEWVAVLSFDGINKYYADSARGRFTISRDNSKNTLYLQMNSLRAEDTALYYCAKDRQEYSSGWTHDACDIWGQGTMVTVSS
VL: EIVMTQSPATLSVSPGERATLSCRASQNVNNNLAWYQQNPGQAPRLLIFGASTRATGIPARFSGSGSGTEFTLTISSLQSEDFAVYYCQQYNNWPRTFGQGTKLEIK
B15: ADI-41312 (antibody, V domains shown)
VH: QVQLQESGPGLVKPSGTLSLTCAVSGGSISSSNWWNWVRQPPGKGLEWIGEIYHSGRTNYNPSLKSRVSISIDKFKSQFSLNLNSVTAADTAVYYCARDLPGTPYDIVPGYYPGLRRHDAFDIWGQGTMVTVSS
VL: not shown
B16: ADI-41308 (antibody, V domains shown)
VH: EVQLVESGPGLVKPSQTLSLTCAISGDSVSSNSAAWNWIRQSPSRGLERMGRTYYRSKWYDDYAVSVKSRIIINPDTSKNQFSLQLNSVTPEDTAVYYCARGISTFGGVIYALEIWGQGTMVTVSS
VL: SYVLTQPASVSGSPGQSITISCTGLTSDVGGYNFVSWYQQHPGKAPKLIIYDVSHRPSGVSNRFSGSESGNTASLTISGLQAEDEAHYYCSSYTRTSIVVFGGGTKLTVL
B17: ADI-41309 (antibody, V domains shown)
VH: EVQLLESGPGLVKPSQTLSLTCTVSGGSISSGDYYWSWVRQPPGKGLEWIGNIYHSGSTYYKPSLKSRVSISLDTSKNQFSLKLSSVTAADTAIYYCARDGGENYVWGTFRFLDVWGQGTTVTVSS
VL: DIRLTQSPGTLSLSPGERATLSCRASQSVSSSYLAWYQQKPGQAPRLLIYGVSSRATGIPDRFSGSGSGTDFTLTINRLEPEDFALYHCQQYGSSPHTFGQGTKVEIK
B18: ADI-41323 (antibody, V domains shown)
VH: EVQLLESGGGVVRPGGSLRLSCAASGFTFDDYAMGWVRQAPGKGLEWVSGITWNAGSTAYAGSVKGRFTISRDNAKNSLFLQMNSLRAEDTAFYLCARHVDSSGPVARHFDYWGQGTLVTVSS
VL: NFMLTQPHSVSESPGKTVTISCTRSSGSIARNYVQWYQQRPGSAPTIVIYEDNQRPSGVPDRFSGSIDSSSNSASLTISGLKTEDEADYYCQSYDPSNVVFGGGTKLTVL
B19: ADI-41306 (antibody, V domains shown)
VH: QVQLVESGPRLVKPSQTLSLTCTVSGGSIYRGDYDWNWIRQPPGKGLEWIGYISYTGNTHYNSSLKSRLSISADTSGTHFSLKLSSVTAADTAIYYCARDVGYGGNAAHYYYYAMDVWGQGTTVTVSS
VL: ETTLTQSPATLSLSPGERATLSCRASQSVGSSLAWYQQKVGQAPRLLIYDASSRVTGIPARFSGSGSGTDFTLTISSLEPGDFAVYYCQQRSNSLTFGGGTKVEIK
B20: ADI-41313 (antibody, V domains shown)
VH: EVQLVESGAEVKKPGASVKVSCKASGYTFNNYDISWVRQAPGQGLEWMGWISTYNGNTNYAQKFQGRATMTTDTSTTTAYMELRSLRSDDSAIYYCARVYCGGDCHNPFFLYFDLWGRGTLVTVSS
VL: SYVLTQPLSVSVALGQTARITCGGNNIGSKSVHWYQQKPGQAPLLVIYRDNNRPSGIPERFSGSTSGNTATLTISRAQAGDEADYSCQVWDNSDWVFGGGTKLTVL
B21: ADI-41304 (antibody, V domains shown)
VH: EVQLVESGPGLVKPSQTLSLTCTVSGGSIRSHDYYWSWIRQPPGKGLEWIGYSYYSGSTYYNPSLKSRVIISLDTSKNQFSLNLTSVTAADTAMYYCARDRPHTSSWIPGWFDPWGQGTLVTVSS
VL: SYELTQPPSASGTPGQRVTISCSGSSSNIGSNTVSWYQQFPGKAPKLLIYSNNERPSGGPDRFSGSKSGTSASLAIGGLQSEDEANYYCAAWDDSLYAVVFGGGTKLTVL

target: RSV F on RSV-A2 virus (Respiratory syncytial virus (RSV-A2)); experiment: cell-based or functional assay

Binder	Neutralization IC50 (RSV subtype A) [µg/mL]
B1	> 25
B2	> 25
B3	> 25
B4	> 25
B5	> 25
B6	> 25
B7	> 25
B8	> 25
B9	> 25
B10	> 25
B11	4.66
B12	> 25
B13	> 25
B14	> 25
B15	> 25
B16	> 25
B17	> 25
B18	> 25
B19	0.173
B20	> 25
B21	> 25
